{
  "source": "paper PMC10790770",
  "assay_in_all_cases": "cross-linking; cysteine cross-linking with CuCl2 in E. coli co-producing the T2SS lacking pulF (pCHAP8252) and PulF or PulFΔN Cys variants (pCHAP8259 derivatives); total extracts on 4%–15% SDS gradient gels, blot with anti-PulFC",
  "key": {"[1]": {"molecular_target": "PulF^Y168C-E370C (K. oxytoca) (UniProt P15745)"}, "[2]": {"molecular_target": "PulFΔN^V171C-P371C (K. oxytoca) (UniProt P15745)"}, "[3]": {"molecular_target": "PulF^V171C-P371C (K. oxytoca) (UniProt P15745)"}, "[4]": {"molecular_target": "PulFΔN^Y168C-E370C (K. oxytoca) (UniProt P15745)"}},
  "data": [
    {"substance": "PulF^Y168C-E370C (from UniProt P15745 1-381) (natural protein)", "values": [
      {"measurement": "stoichiometry N", "setting": "[1]", "value": 3}
    ]},
    {"substance": "PulFΔN^V171C-P371C (from UniProt P15745 35-381) (domain or fragment)", "values": [
      {"measurement": "stoichiometry N", "setting": "[2]", "value": 3}
    ]},
    {"substance": "PulF^V171C-P371C (from UniProt P15745 1-381) (natural protein)", "values": [
      {"measurement": "stoichiometry N", "setting": "[3]", "value": 3}
    ]},
    {"substance": "PulFΔN^Y168C-E370C (from UniProt P15745 35-381) (domain or fragment)", "values": [
      {"measurement": "stoichiometry N", "setting": "[4]", "value": 3}
    ]}
  ]
}
